Experimental data from US20200148778A1.
Read-outs that look alike come from different tables or passages of the source.

How the values were obtained:
[1] = target: His-tagged human CD40 (h-CD40-his) recombinant protein (human) (UniProt P25942); assay: ELISA, human CD40-his coated
[2] = target: His-tagged human CD40 (h-CD40-his) recombinant protein (human) (UniProt P25942); assay: ELISA, human CD40-his coated; remark: listed apart in the source
[3] = target: His-tagged rhesus CD40 (rhesus-CD40-his) recombinant protein (rhesus) (UniProt F6SNI1); assay: ELISA, rhesus CD40-his coated
Sequence of His-tagged rhesus CD40 (rhesus-CD40-his) recombinant protein (rhesus) (F6SNI1 entry or part of it): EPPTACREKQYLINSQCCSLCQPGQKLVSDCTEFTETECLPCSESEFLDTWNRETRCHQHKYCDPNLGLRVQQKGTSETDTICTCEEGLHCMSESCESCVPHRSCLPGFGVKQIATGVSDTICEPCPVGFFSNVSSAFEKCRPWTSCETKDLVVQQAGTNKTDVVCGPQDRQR

[4] = target: Fc-tagged human CD40 (h-CD40-Fc) recombinant protein (human) (UniProt P25942); assay: hCD40/hCD40L blocking ELISA, CD40L as competitor
Sequence of Fc-tagged human CD40 (h-CD40-Fc) recombinant protein (human) (P25942 21-193 limits assumed): as the sequence (F6SNI1 entry or part of it) above, with S43G, R56H, L89W, M92T, S95A, P101L, L106S, R142H, Q172L counted along it

[5] = target: Fc-tagged human CD40 (h-CD40-Fc) recombinant protein (human) (UniProt P25942); assay: hCD40/hCD40L blocking ELISA, CD40L as competitor; remark: listed apart in the source
[6] = target: human CD40 on HEK293 cells stably transfected with the human CD40 gene (HEK-Blue CD40L cells) (human) (UniProt P25942); assay: HEK293-CD40 cells binding; method not described
Sequence of human CD40 on HEK293 cells stably transfected with the human CD40 gene (HEK-Blue CD40L cells) (human) (P25942 21-277): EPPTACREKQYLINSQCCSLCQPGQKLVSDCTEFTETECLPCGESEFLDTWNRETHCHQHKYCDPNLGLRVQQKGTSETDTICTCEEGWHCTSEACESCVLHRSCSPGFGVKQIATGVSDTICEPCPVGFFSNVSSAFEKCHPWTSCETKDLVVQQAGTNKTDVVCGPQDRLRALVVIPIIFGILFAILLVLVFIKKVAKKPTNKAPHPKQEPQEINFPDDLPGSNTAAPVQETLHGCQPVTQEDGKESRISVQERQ

[7] = target: human CD40 on HEK293 cells stably transfected with the human CD40 gene (HEK-Blue CD40L cells) (human) (UniProt P25942); assay: HEK293-CD40 cells binding; method not described; remark: listed apart in the source
[8] = target: His-tagged human CD40 (h-CD40-his) recombinant protein (human) (UniProt P25942); assay: Biacore X100, antibody captured by anti-human antibody on CM5 chip, CD40 antigen as analyte, 1:1 model
[9] = target: His-tagged human CD40 (h-CD40-his) recombinant protein (human) (UniProt P25942); assay: as above; remark: listed apart in the source

Sequence of His-tagged human CD40 (h-CD40-his) recombinant protein (human) (P25942 21-193 limits assumed): as the sequence (F6SNI1 entry or part of it) above, with S43G, R56H, L89W, M92T, S95A, P101L, L106S, R142H, Q172L counted along it

EC50 [1]: 0.00329 µg/mL
EC50 [2]: 0.00129 µg/mL
EC50 [3]: 0.00124 µg/mL
IC50 [4]: 0.723 µg/mL
IC50 [5]: 0.647 µg/mL
EC50 [6]: 0.397 µg/mL
EC50 [7]: 1.36 µg/mL
Kd [8]: 65.9 nM
Kd [9]: 166 nM
B1: Alligator reference (hIgG1) (antibody, INN chains, looked up, V domains shown)
VH: EVQLLESGGGLVQPGGSLRLSCAASGFTFSTYGMHWVRQAPGKGLEWLSYISGGSSYIFYADSVRGRFTISRDNSENALYLQMNSLRAEDTAVYYCARILRGGSGMDLWGQGTLVTVSS
VL: QSVLTQPPSASGTPGQRVTISCTGSSSNIGAGYNVYWYQQLPGTAPKLLIYGNINRPSGVPDRFSGSKSGTSASLAISGLRSEDEADYYCAAWDKSISGLVFGGGTKLTVL
